B1: TAMRA-labeled α-synuclein peptide (peptide)
peptide: GYQDYEPEA
modifications: also: TAMRA fluorophore, position not given here

Read-outs that look alike come from different tables or passages of the source. Where no end group is shown, it is not given here.

Some targets named below: I55V/N2.12; N2.8; N2.6; N2.15; N2.14; N2.4; N2.7; N2.11; N2.1; N2.13; N2.10; N2.9; N2.3; N2.2.
What all share (test): FP
Assay [1] addresses B1.
The target of assay [2] is B1.

For the molecule B1, the Kd – broadly, the equilibrium constant for the complex coming apart – with I55V/N2.12 is 5.7 nM; in the assay with N2.8, 28.5 nM; with N2.6, 25.1 nM; with N2.15 it was 23.1 nM; in the assay with N2.14, 16.2 nM; with N2.4 it was 14.3 nM. For the same molecule, the equilibrium dissociation constant (Kd) in the assay with N2.7 turned out to be 15.1 nM; in the assay with N2.11, 21.6 nM; with N2.1, 14.3 nM; with N2.13, 20.3 nM; in the assay with N2.10 it was 31.6 nM; with N2.9 it was 28 nM. Also, the figures for the dissociation constant Kd with N2.3 and in the assay with N2.2 were 11.4 nM and 23 nM, respectively.

B2: N2.5 VHH (VHH)
VHH: QGQLVESGGGSVQAGGSLRLSCAASGIDSSSYCMGWFRQRPGKEREGVARINGLSGVKTAYADSVKDRFTISRDNAENTVYLQMNSLKPEDTAIYYCAAKSSPGYCGGTWFSFGYWGQGTQVTVSS
Turning to B2, binding in [1] was characterised by a dissociation constant (Kd) of 55.3 nM.

B3: N2.12 reversion mutant S100d (VHH)
VHH: QGQLVESGGGSVQAGGSLRLSCAASGIDSSSYCMGWFRQRPGKEREGVGRINGWRGIKTAYADSVKDRFTISRDNAENTVYLQMNSLKPEDTAIYYCAAKSSPGYCGGSWSNFGYWGQGTQVTVSS
Molecule B3 registered a Kd in assay [2] of 11.9 nM. This counts as double-digit nanomolar.

B4: N2.12 reversion mutant A49 (VHH)
VHH: QGQLVESGGGSVQAGGSLRLSCAASGIDSSSYCMGWFRQRPGKEREGVARINGWRGIKTAYADSVKDRFTISRDNAENTVYLQMNSLKPEDTAIYYCAAKSSPGYCGGTWSNFGYWGQGTQVTVSS
For B4, the Kd in assay [2] was found to be 8.2 nM.

B5: N2.12 reversion mutant F96 (VHH)
VHH: QGQLVESGGGSVQAGGSLRLSCAASGIDSSSYCMGWFRQRPGKEREGVGRINGWRGIKTAYADSVKDRFTISRDNAENTVYLQMNSLKPEDTAIYYCAAKFSPGYCGGTWSNFGYWGQGTQVTVSS
With B5, in assay [2], binding was characterised by a dissociation constant (Kd) of 18.6 nM.

B6: N2.17 reversion mutant S100d (VHH)
VHH: QGQLVESGGGSVQAGGSLRLSCAASGIDSSSYCMGWFRQRPGKEREGVARINGWGGVKTAYADSVKDRFTISRDNAENTVYLQMNSLKPEDTAIYYCAAKSSPGYCGGSWFNFGYWGQGTQVTVSS
Turning to B6, the dissociation constant Kd in [2] was 27.5 nM.

B7: N2.12 reversion mutant G53 (VHH)
VHH: QGQLVESGGGSVQAGGSLRLSCAASGIDSSSYCMGWFRQRPGKEREGVGRINGWGGIKTAYADSVKDRFTISRDNAENTVYLQMNSLKPEDTAIYYCAAKSSPGYCGGTWSNFGYWGQGTQVTVSS
Molecule B7 yielded a Kd in assay [2] of 14.1 nM.

B8: N2.17 reversion mutant F96 (VHH)
VHH: QGQLVESGGGSVQAGGSLRLSCAASGIDSSSYCMGWFRQRPGKEREGVARINGWGGVKTAYADSVKDRFTISRDNAENTVYLQMNSLKPEDTAIYYCAAKFSPGYCGGTWFNFGYWGQGTQVTVSS
In assay [2], B8 came in with a dissociation constant (Kd) of 72.2 nM.

B9: N2.17 reversion mutant S100f (VHH)
VHH: QGQLVESGGGSVQAGGSLRLSCAASGIDSSSYCMGWFRQRPGKEREGVARINGWGGVKTAYADSVKDRFTISRDNAENTVYLQMNSLKPEDTAIYYCAAKSSPGYCGGTWSNFGYWGQGTQVTVSS
Molecule B9 had a Kd in assay [2] of 11 nM.

B10: N2.12 reversion mutant L52b (VHH)
VHH: QGQLVESGGGSVQAGGSLRLSCAASGIDSSSYCMGWFRQRPGKEREGVGRINGLRGIKTAYADSVKDRFTISRDNAENTVYLQMNSLKPEDTAIYYCAAKSSPGYCGGTWSNFGYWGQGTQVTVSS
In the case of B10, the Kd in [2] turned out to be 16.9 nM. This Kd lies about 1.5-fold higher than the previous one.

B11: N2.17 reversion mutant L52b (VHH)
VHH: QGQLVESGGGSVQAGGSLRLSCAASGIDSSSYCMGWFRQRPGKEREGVARINGLGGVKTAYADSVKDRFTISRDNAENTVYLQMNSLKPEDTAIYYCAAKSSPGYCGGTWFNFGYWGQGTQVTVSS
In [2], B11 registered an equilibrium dissociation constant (Kd) of 30 nM.

B12: N2.16 VHH (VHH)
VHH: QGQLVESGGGSVQAGGSLRLSCAASGIDSSSYCMGWFRQRPGKEREGVGRINGWSGVKTAYADSVKDRFTISRDNAENTVYLQMNSLKPEDTAIYYCAAKSSPGYCGGTWYNFGYWGQGTQVTVSS
In [1], B12 had a Kd of 11.2 nM.
